These results are taken from patent publication US9459207B2, “Method of characterizing interactions and screening for effectors” (Wyatt Technology Corporation, priority 2010, dated 2016).

This assay concerns the target chymotrypsin (Bos taurus, UniProt P00766). The assay can be described thus: Dynamic light scattering heteroassociation experiment (rh vs molar ratio of the two proteins, fitted). Type of assay: binding. How it is done: The method begins with sample preparation to be described presently. The DLS data are collected, and then analyzed in a four-step procedure. First, the concentrations of all components in a solution at a given time are calculated from postulated stoichiometries, association constant(s), Ka, and the known a priori concentrations of the stock solutions of the constituent molecule(s). […] Third, the modeled concentration data and modeled hydrodynamic radius data are combined to model the expected dynamic light scattering data at each sample ratio. Fourth, a best fit of the models to the collected DLS data is obtained. Thus, some or all parameters are adjusted to produce a best fit to the DLS data. Such fitting might be achieved using a least squares method, for example. These four steps of data analysis are discussed in detail in the following, and variations are possible, as would be apparent to one skilled in the art of DLS or particle associations.
In this example, to prepare the sample series for both self- and hetero-association, two stock solutions are mixed manually. For analysis of hetero-association, a high concentration, on the order of 0.5 mg/mL, solution of each pure molecule is prepared in the same solvent. For larger molecules, such as those greater than, say, 50 kDa, lower concentrations may be used. For analysis of self-association reactions, the molecular solution is prepared at the highest concentration to be tested; the second solution is the pure solvent in which the sample molecule was prepared. All solutions are filtered through a 0.02 μm filter.
For either type of analysis, aliquots of the two solution mixtures are dispensed into a 1536 well microtiter plate in a series of ratios from 100% A:0% B to 0% A:100% B, or some subset thereof, where the number of ratios prepared depends upon the desired detail of analysis. Typically, 10-20 ratios are used.
Following the dispensing of the sample, the microtiter plate is centrifuged at a rate and duration sufficient to remove any bubbles present in the samples; typically 1000 g for 15 seconds. Wells may then be covered to avoid evaporation, for example, by dispensing approximately 10 μL of paraffin oil into each well. The plate is then re-centrifuged prior to being placed into a dynamic light scattering instrument programmed, for example, to make 25 one-second dynamic light scattering measurements per well.
As an example of the inventive method, we consider two species A and B associating to form species AB with equilibrium association constant KAB: A+B ? AB. In this example we will use fitting procedure C, using the average hydrodynamic radius found by fitting the autocorrelation function measured for each sample to a cumulants model. We will assume that Equation (11) is valid. […]

As to “lysozyme: protein, 14.4 kDa, negative control”, where the note is “negative control, FIG. 5”, the “binding to chymotrypsin (in words)” value is reported as “no binding”. Besides, the association constant (negative control, pH 6.7) worked out at 0.

B1: soybean trypsin inhibitor: protein, molar mass of 22 kDa, binds chymotrypsin (protein, UniProt P01070 25-205, looked up)
Trypsin inhibitor A: DFVLDNEGNPLENGGTYYILSDITAFGGIRAAPTGNERCPLTVVQSRNELDKGIGTIISSPYRIRFIAEGHPLSLKFDSFAVIMLCVGIPTEWSVVEDLPEGPAVKIGENKDAMDGWFRLERVSDDEFNNYKLVFCPQQAEDDKCGDIGISIDHDDGTRRLVVSKNKPLVVQFQKLDKESL
For B1, the “a value (association conformation parameter)” value (DLS fit, rAB={rA^a+rB^a}^1/a) came out at 2.26. The association constant (DLS fit, soybean trypsin inhibitor fitted with an incompetent fraction of chymotrypsin) amounted to 3.8e+06 M⁻¹.
